The DeepSol protein solubility set

experiment: soluble on expression in E. coli; label from the status in PepcDB or PDB records

| Sequence | soluble on expression in E. coli |
| --- | --- |
| MDAKVAFSPHSDANGRLDEIGADIDTAQSSVLFSLAFLGQMTRGAIGPALGRALERPEVHVMGIADAEVRAGNLGLNVLTPDNRRRVVRAAALTGNVPPPFLTEPSGLAGVDGNQRGTRMHHKFVVLDFDKPTARVYLGSYNFSNPADDENGENLVVVRDRTVATSYMIEALRMYDHYVFRVASEASDGPARPLEHHHHHH | not soluble |
| MGLSCALTSGLSLRCFSNTPARLSCGAGILHCSKLCLSGFGDPAQGRLHNANHGAVRLHGTVTAFKHRRGYGFVLAEGVAASAPPLKHTYVALDTHAAAARNNGVPPAREEACNELHKSFFFTRSALMGGFYVTEGERVSFAVVAVPPGKGINRRVAGDSPSTRKDDGDHAALGGAETAEFLLGSPEGELEEDSSAATSDTQSQLHRIAVSLRYYDAKTGKETPISPLTLYGKIVEWDAAAGVGVIAELDTRRQYHEDAPRFPFSLESVDLALGTELRSGRYVRFCLEPATHAQGGGGEDTAAAVTPTSGAEAAADVDEDVELVAQRVIIDSSMERRKGVFGRPLVLADAAPGTMTSESRFSGVVREVKADHFGFIQDDLSGESIFFHLSNASSRVKAGDRVTYLLREVEYGKHTGKKACFDVLIDQTVTSRARDAASDCGASAGAGNAGGHHRKHAAERRSKTARDEDDLDFELL | not soluble |
| SGRPIEDVRDRQRLADATATVHETRLALHHGRGNIESDFRLSNGRSSTCSYLSYSFLSYWPGKHDINLMAGCALAVSAGNCDQNAAINTRRHAARMEGGGQITNVCDQACAHMYALYQPPGSAEAQDSAVVLDSWSDGPAVLLRDSRWAGTYHRTSTYPIERFDKPGAIDALARTRALQAEIEDPQTEFHAHLRGVESVVRTPPVPRKIYASTP | not soluble |
| MVSEEEEEEDGDAEETQDSEDDEEDEMEEDDDDSDYPEEMEDDDDDASYCTESSFRSHSTYSSTPGRRKPRVHRPRSPILEEKDIPPLEFPKSSEDLMVPNEHIMNVIAIYEVLRNFGTVLRLSPFRFEDFCAALVSQEQCTLMAEMHVVLLKAVLREEDTSNTTFGPADLKDSVNSTLYFIDGMTWPEVLRVYCES | not soluble |
| MANSITADEIREQFSQAMSAMYQQEVPQYGTLLELVADVNLAVLENNPQLHEKMVNADELARLNVERHGAIRVGTAQELATLRRMFAIMGMYPVSYYDLSQAGVPVHSTAFRPIDDASLARNPFRVFTSLLRLELIENEILRQKAAEILRQRDIFTPRCRQLLEEYEQQGGFNETQAQEFVQEALETFRWHQSATVDEETYRALHNEHRLIADVVCFPGCHINHLTPRTLDIDRVQSMMPECGIEPKILIEGPPRREVPILLRQTSFKALEETVLFAGQKQGTHTARFGEIEQRGVALTPKGRQLYDDLLRNAGTGQDNLTHQMHLQETFRTFPDSEFLMRQQGLAWFRYRLTPSGEAHRQAIHPGDDPQPLIERGWVVAQPITYEDFLPVSAAGIFQSNLGNETQTRSHGNASREAFEQALGCPVLDEFQLYQEAEERSKRRCGLLLEHHHHHH | soluble |
| MAVNLNPPQAGQLPAVAGVELLVAEAGIKTPGRKDVLVVKLDKGNTVAGVFTRNRFCAAPVQLCQEHLAAGVQIRALVVNTGNANAGTGFDGRARALSVCRAVAERDQLQTEQVLPFSTGVILEPLPADKIVAALPALRQADWAEAAEAIMTTDTLAKAASRRLDIGGKAVTVTGIAKGSGMIHPNMATMLGFVATDAAVTRPMLNQLVREVADQSFNSITVDGDTSTNDSFILISTGQSGAELIDSAEQPAYQQLKQALLEVAIELAQAIVRDGEGATKFITVDVNGGRSVAECKDVAYAIARSPLVKTAFFASDPNLGRLLAAIGYAGVADLDVDRLSLYLDDVLVACEGGRNPAYKEAQGQAVMNQSEITVRVELGRGSASARVWTCDFSYEYVRINADYRSLEHHHHHH | not soluble |
| MTQPLFLIGPRGCGKTTVGMALADSLNRRFVDTDQWLQSQLNMTVAEIVEREEWAGFRARETAALEAVTAPSTVIATGGGIILTEFNRHFMQNNGIVVYLCAPVSVLVNRLQAAPEEDLRPTLTGKPLSEEVQEVLEERDALYREVAHIIIDATNEPSQVISEIRSALAQTINC | soluble |
| MRPMGHAESVMSRFAHRVKSRRSWKDQGLRAFLKAMVARIDGIRWRKGPLEAEEPQSAVSASTKSKRIEQAKRKAGRLWADVVRQNLPCLQQSSGTPIHQALSALRDGGWV | not soluble |
